We go through four substances from PMC11138481.

Assay [1] deals with GAS41 YEATS domain (residues 11–150) (human) (UniProt O95619). Description: MST.
The target of another assay is Flag-GAS41 H43S (human) (UniProt O95619). Briefly: co-IP.
Chain of Flag-GAS41 H43S (human) (O95619 whole entry H43S): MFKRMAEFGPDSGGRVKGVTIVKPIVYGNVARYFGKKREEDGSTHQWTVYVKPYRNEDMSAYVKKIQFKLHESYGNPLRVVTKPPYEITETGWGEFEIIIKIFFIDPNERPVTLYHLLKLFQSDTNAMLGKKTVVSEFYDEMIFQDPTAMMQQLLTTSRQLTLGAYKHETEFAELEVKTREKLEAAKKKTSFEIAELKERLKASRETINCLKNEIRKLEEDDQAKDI

Chain of GAS41 YEATS domain (residues 11–150) (human) (O95619 11-150): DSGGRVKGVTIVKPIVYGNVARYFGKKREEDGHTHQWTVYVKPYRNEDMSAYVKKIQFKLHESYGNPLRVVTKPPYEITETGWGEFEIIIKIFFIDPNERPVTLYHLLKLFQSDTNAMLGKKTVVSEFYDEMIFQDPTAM

The Kd is the concentration at which binding is half-saturated. A high value points to lower affinity. “H3K27ac nucleosome core particle (from UniProt P04908 1-130; P62805 1-103) (complex)” returned a Kd in assay [1] of 229 nM. Still for that read-out and setting: in the case of “H3K27cr nucleosome core particle (from UniProt P04908 1-130; P62805 1-103) (complex)” it was 158 nM.

Consider “nucleosomal histone H3K27cr (endogenous) (from UniProt P68431 1-136) (natural protein)”, for which, in the assay with Flag-GAS41 H43S (human), the percent reduction of binding against Flag-GAS41 wt was > 60%. As for “unmodified nucleosome core particle (from UniProt P04908 1-130; P62805 1-103) (complex)”, the Kd in assay [1] is 913 nM.
